Measurements: the supplement of paper PMC5998384

Key:
HeLa Kyoto [1] = test: thermal stability score vs G1/S (z-score of summed log2 fold changes over temperatures); higher = more thermally stable than in G1/S
HeLa Kyoto [2] = test: melting temperature (median over replicates), in situ; higher = more thermally stable
HeLa Kyoto [3] = test: solubility in G1/S (NP-40 vs SDS abundance) (log2 ratio); higher = more soluble; conditions: cell cycle stage: G1/S
HeLa Kyoto [4] = test: solubility change mitosis vs G1/S (difference of NP-40 vs SDS log2 ratios) (log2 ratio difference); higher = more soluble in mitosis
[5] = cell cycle stage: early G1 (4.5 h after nocodazole release)
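For melting temperature (median over replicates), in situ in this document: HeLa Kyoto cells synchronized by double thymidine or nocodazole block, proteins quantified by TMT10plex mass spectrometry, three independent biological replicates.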
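For solubility change mitosis vs G1/S (difference of NP-40 vs SDS log2 ratios) in this document: synchronized HeLa Kyoto cells (double thymidine block for G1/S, nocodazole release for mitosis), protein amounts in NP-40 versus SDS lysates quantified by mass spectrometry, three biological replicates.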
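For solubility in G1/S (NP-40 vs SDS abundance) in this document: HeLa Kyoto cells arrested at G1/S by double thymidine block, proteins quantified by TMT10plex mass spectrometry in mild NP-40 versus SDS extracts, three biological replicates.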
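For thermal stability score vs G1/S (z-score of summed log2 fold changes over temperatures) in this document: synchronized HeLa Kyoto cells, proteins quantified by TMT10plex mass spectrometry, three biological replicates, mitosis taken 0.5 h after nocodazole release, G1/S directly after double thymidine block.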

| Sequence | thermal stability score (HeLa Kyoto [1]; [5]) | thermal stability score (HeLa Kyoto [1]; cell cycle stage: mitosis) | melting temperature (HeLa Kyoto [2]; cell cycle stage: G1/S) [°C] | melting temperature (HeLa Kyoto [2]; cell cycle stage: mitosis) [°C] | solubility in G1/S (log2) (HeLa Kyoto [3]) | solubility change mitosis (log2) (HeLa Kyoto [4]) |
| --- | --- | --- | --- | --- | --- | --- |
| MPLTGVEPARMNRKKGDKGFESPRPYKLTHQVVCINNINFQRKSVVGFVELTIFPTVANLNRIKLNSKQCRIYRVRINDLEAAFIYNDPTLEVCHSESKQRNLNYFSNAYAAAVSAVDPDAGNGELCIKVPSELWKHVDELKVLKIHINFSLDQPKGGLHFVVPSVEGSMAERGAHVFSCGYQNSTRFWFPCVDSYSELCTWKLEFTVDAAMVAVSNGDLVETVYTHDMRKKTFHYMLTIPTAASNISLAIGPFEILVDPYMHEVTHFCLPQLLPLLKHTTSYLHEVFEFYEEILTCRYPYSCFKTVFIDEAYVEVAAYASMSIFSTNLLHSAMIIDETPLTRRCLAQSLAQQFFGCFISRMSWSDEWVLKGISGYIYGLWMKKTFGVNEYRHWIKEELDKIVAYELKTGGVLLHPIFGGGKEKDNPASHLHFSIKHPHTLSWEYYSMFQCKAHLVMRLIENRISMEFMLQVFNKLLSLASTASSQKFQSHMWSQMLVSTSGFLKSISNVSGKDIQPLIKQWVDQSGVVKFYGSFAFNRKRNVLELEIKQDYTSPGTQKYVGPLKVTVQELDGSFNHTLQIEENSLKHDIPCHSKSRRNKKKKIPLMNGEEVDMDLSAMDADSPLLWIRIDPDMSVLRKVEFEQADFMWQYQLRYERDVVAQQESILALEKFPTPASRLALTDILEQEQCFYRVRMSACFCLAKIANSMVSTWTGPPAMKSLFTRMFCCKSCPNIVKTNNFMSFQSYFLQKTMPVAMALLRDVHNLCPKEVLTFILDLIKYNDNRKNKFSDNYYRAEMIDALANSVTPAVSVNNEVRTLDNLNPDVRLILEEITRFLNMEKLLPSYRHTITVSCLRAIRVLQKNGHVPSDPALFKSYAEYGHFVDIRIAALEAVVDYTKVDRSYEELQWLLNMIQNDPVPYVRHKILNMLTKNPPFTKNMESPLCNEALVDQLWKLMNSGTSHDWRLRCGAVDLYFTLFGLSRPSCLPLPELGLVLNLKEKKAVLNPTIIPESVAGNQEAANNPSSHPQLVGFQNPFSSSQDEEEIDMDTVHDSQAFISHHLNMLERPSTPGLSKYRPASSRSALIPQHSAGCDSTPTTKPQWSLELARKGTGKEQAPLEMSMHPAASAPLSVFTKESTASKHSDHHHHHHHEHKKKKKKHKHKHKHKHKHDSKEKDKEPFTFSSPASGRSIRSPSLSD [TAF2] | 0.286 | 0.175 | 49.6 | 50.2 | -0.657 | 0.123 |
| MEFAELIKTPRVDNVVLHRPFYPAVEGTLCLTGHHLILSSRQDNTEELWLLHSNIDAIDKRFVGSLGTIIIKCKDFRIIQLDIPGMEECLNIASSIEALSTLDSITLMYPFFYRPMFEVIEDGWHSFLPEQEFELYSSATSEWRLSYVNKEFAVCPSYPPIVTVPKSIDDEALRKVATFRHGGRFPVLSYYHKKNGMVIMRSGQPLTGTNGRRCKEDEKLINATLRAGKRGYIIDTRSLNVAQQTRAKGGGFEQEAHYPQWRRIHKSIERYHILQESLIKLVEACNDQTHNMDRWLSKLEASNWLTHIKEILTTACLAAQCIDREGASILIHGTEGTDSTLQVTSLAQIILEPRSRTIRGFEALIEREWLQAGHPFQQRCAQSAYCNTKQKWEAPVFLLFLDCVWQILRQFPCSFEFNENFLIMLFEHAYASQFGTFLGNNESERCKLKLQQKTMSLWSWVNQPSELSKFTNPLFEANNLVIWPSVAPQSLPLWEGIFLRWNRSSKYLDEAYEEMVNIIEYNKELQAKVNILRRQLAELETEDGMQESP [MTMR9] | -0.213 | -0.626 | 50.2 | 50.6 | -0.116 | -0.125 |
| MAGRSMQAARCPTDELSLTNCAVVNEKDFQSGQHVIVRTSPNHRYTFTLKTHPSVVPGSIAFSLPQRKWAGLSIGQEIEVSLYTFDKAKQCIGTMTIEIDFLQKKSIDSNPYDTDKMAAEFIQQFNNQAFSVGQQLVFSFNEKLFGLLVKDIEAMDPSILKGEPATGKRQKIEVGLVVGNSQVAFEKAENSSLNLIGKAKTKENRQSIINPDWNFEKMGIGGLDKEFSDIFRRAFASRVFPPEIVEQMGCKHVKGILLYGPPGCGKTLLARQIGKMLNAREPKVVNGPEILNKYVGESEANIRKLFADAEEEQRRLGANSGLHIIIFDEIDAICKQRGSMAGSTGVHDTVVNQLLSKIDGVEQLNNILVIGMTNRPDLIDEALLRPGRLEVKMEIGLPDEKGRLQILHIHTARMRGHQLLSADVDIKELAVETKNFSGAELEGLVRAAQSTAMNRHIKASTKVEVDMEKAESLQVTRGDFLASLENDIKPAFGTNQEDYASYIMNGIIKWGDPVTRVLDDGELLVQQTKNSDRTPLVSVLLEGPPHSGKTALAAKIAEESNFPFIKICSPDKMIGFSETAKCQAMKKIFDDAYKSQLSCVVVDDIERLLDYVPIGPRFSNLVLQALLVLLKKAPPQGRKLLIIGTTSRKDVLQEMEMLNAFSTTIHVPNIATGEQLLEALELLGNFKDKERTTIAQQVKGKKVWIGIKKLLMLIEMSLQMDPEYRVRKFLALLREEGASPLDFD [NSF] | 0.564 | 0.772 | 49.8 | 49.6 | 0.236 | -0.153 |
| MSLSHLYRDGEGRIDDDDDERENFEITDWDLQNEFNPNRQRHWQTKEEATYGVWAERDSDDERPSFGGKRARDYSAPVNFISAGLKKGAAEEAELEDSDDEEKPVKQDDFPKDFGPRKLKTGGNFKPSQKGFAGGTKSFMDFGSWERHTKGIGQKLLQKMGYVPGRGLGKNAQGIINPIEAKQRKGKGAVGAYGSERTTQSMQDFPVVDSEEEAEEEFQKELSQWRKDPSGSKKKPKYSYKTVEELKAKGRISKKLTAPQKELSQVKVIDMTGREQKVYYSYSQISHKHNVPDDGLPLQSQQLPQSGKEAKAPGFALPELEHNLQLLIDLTEQEIIQNDRQLQYERDMVVNLFHELEKMTEVLDHEERVISNLSKVLEMVEECERRMQPDCSNPLTLDECARIFETLQDKYYEEYRMSDRVDLAVAIVYPLMKEYFKEWDPLKDCTYGTEIISKWKSLLENDQLLSHGGQDLSADAFHRLIWEVWMPFVRNIVTQWQPRNCDPMVDFLDSWVHIIPVWILDNILDQLIFPKLQKEVENWNPLTDTVPIHSWIHPWLPLMQARLEPLYSPIRSKLSSALQKWHPSDSSAKLILQPWKDVFTPGSWEAFMVKNIVPKLGMCLGELVINPHQQHMDAFYWVIDWEGMISVSSLVGLLEKHFFPKWLQVLCSWLSNSPNYEEITKWYLGWKSMFSDQVLAHPSVKDKFNEALDIMNRAVSSNVGAYMQPGARENIAYLTHTERRKDFQYEAMQERREAENMAQRGIGVAASSVPMNFKDLIETKAEEHNIVFMPVIGKRHEGKQLYTFGRIVIYIDRGVVFVQGEKTWVPTSLQSLIDMAK [TFIP11] | 0.21 | 1.2 | 48.4 | 48.9 | -0.472 | 0.115 |
| MPRARKGNTLRKGGQRRGGGARSSAQADSGSSDDEAASEARSTASECPSLLSTTAEDSLGGDVVDEQGQQEDLEEKLKEYVDCLTDKSAKTRQGALESLRLALASRLLPDFLLERRLTLADALEKCLKKGKGEEQALAAAVLGLLCVQLGPGPKGEELFHSLQPLLVSVLSDSTASPAARLHCASALGLGCYVAAADIQDLVSCLACLESVFSRFYGLGGSSTSPVVPASLHGLLSAALQAWALLLTICPSTQISHILDRQLPRLPQLLSSESVNLRIAAGETIALLFELARDLEEEFVYEDMEALCSVLRTLATDSNKYRAKADRRRQRSTFRAVLHSVEGGECEEEIVRFGFEVLYMDSWARHRIYAAFKEVLGSGMHHHLQNNELLRDIFGLGPVLLLDATALKACKVPRFEKHLYNAAAFKARTKARSRVRDKRADIL [IFRD2] | -2.6 | -1.01 | 56.3 | 54.5 | -0.734 | 0.211 |
| MAANMYRVGDYVYFENSSSNPYLVRRIEELNKTANGNVEAKVVCLFRRRDISSSLNSLADSNAREFEEESKQPGVSEQQRHQLKHRELFLSRQFESLPATHIRGKCSVTLLNETDILSQYLEKEDCFFYSLVFDPVQKTLLADQGEIRVGCKYQAEIPDRLVEGESDNRNQQKMEMKVWDPDNPLTDRQIDQFLVVARAVGTFARALDCSSSIRQPSLHMSAAAASRDITLFHAMDTLQRNGYDLAKAMSTLVPQGGPVLCRDEMEEWSASEAMLFEEALEKYGKDFNDIRQDFLPWKSLASIVQFYYMWKTTDRYIQQKRLKAAEADSKLKQVYIPTYTKPNPNQIISVGSKPGMNGAGFQKGLTCESCHTTQSAQWYAWGPPNMQCRLCASCWIYWKKYGGLKTPTQLEGATRGTTEPHSRGHLSRPEAQSLSPYTTSANRAKLLAKNRQTFLLQTTKLTRLARRMCRDLLQPRRAARRPYAPINANAIKAECSIRLPKAAKTPLKIHPLVRLPLATIVKDLVAQAPLKPKTPRGTKTPINRNQLSQNRGLGGIMVKRAYETMAGAGVPFSANGRPLASGIRSSSQPAAKRQKLNPADAPNPVVFVATKDTRALRKALTHLEMRRAARRPNLPLKVKPTLIAVRPPVPLPAPSHPASTNEPIVLED [MTA2] | 0.686 | 5.69 | 48.4 | 49.5 | -0.0629 | -0.00514 |
